# Laboratory results as given in the nanobody polyreactivity screen of Harvey et al. (2022).
# Test: yeast display, Sf9 membrane polyspecificity reagent, FACS + sequencing; frameworks hold sequencing errors
# Outline: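 A nanobody's polyreactivity label depends on the gate it was sorted from. Yeast display cells were stained with 10% biotinylated, detergent-solubilized Sf9 membrane reagent for 1 hour at 4 °C, enriched on streptavidin microbeads and sorted by FACS. The low and high (top ~1%) gates were set on anti-HA fluorescence for expression and streptavidin fluorescence for reagent binding.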
row,Sequence,polyreactivity (PSR sort gate)
1,QVQLVESGGGLVQAGGSLRLSCAASGSIFVWNDMGWYRQAPGKERELVASIRSGVSTYYADSVKGRFTISRDNAKNTVYLQMNSLKPEDTAVYYCAKKGPIHYIYDSWGQGTQVTVSS,low polyreactivity
2,QVQLVESGGGLVQAGGSLRLICAASGSIFNAYAMGWYRQAPGKEREFVAAITGGGTYYADSVKGRFTISRDNAKNTVYLQMNSLKPEDTAVYYCNADYGTSRHTFWDYESWGQGTQVTVSS,low polyreactivity
3,QVQLVESGGGLVQAGGSLRLSCAASGLTFWAYAMGWYRQEPGKEREFVAAISWSVDSTYYADSVKGRFTISRDNAKNTVYLQMNSLKPEDTAVYYCAAEWYYVYIAPYRYYYRGQGTQVTVSS,low polyreactivity
4,QVQLVESGGGLVQAGGSLRLSCAASGRIFYRNAMGWYRQAPGKERELVAGITRGGSTNYADSVKGRFTISRDNAKNTVYLQMNSLKPEDTAVYYCAKAIPAKFYSEAGYDYWGQGTQVTVSS,low polyreactivity
5,QVQLVESGGGLVQAGGSLRLSCAASGFTFAYNAMGWYRQAPGKERELVAAISWSGGTTYYADSVKGRFTISRDNAKNTVYLQMNSLKPEDTAVYYCAKRGIGYATSWRGSDYWGQGTQVTVSS,high polyreactivity
6,QVQLVESGGGLVQAGGSLRLSCAASGSIFNRYAMGWYRQAPGKERQFVAAITRRGGNTYYADSVKGRFTISRDNAKNTVYLQMNSLKREDTAVYYCAAPFYYPAGLLYYENNYWGQGTQVTVSS,high polyreactivity
7,QVQLEESGGGLVQAGGSLSLSCAASGSILIYNAMGWYRQAPGKERELVAGISRRGASTYYADSVKGRFTISRDNEKKTVYLQMNRLKPEDTAVYYCAALGKYIVAWSGDYWGQGTQVTVSS,low polyreactivity
8,QVQLVESGGGLLQAGGTLRLSCAASGITFWSYAMGWYRQAPGKERELVAAITIGGTTYYADSVKGRFTSSRDNAKNTVYLQMNSRKPEDTAVYYCAVDSTDQAPPTYDYWGQGTQVTVSS,low polyreactivity
9,QVKLVESGGGLVQAGGSLRLSCAASGRTISGNAMGWYRQAPGKERELVATISGRGGSTYYADSVKGSFTISRDNAKNTVYLQMTSLKPEDTAVYYCAKRLYSRRPLMDSWGQGTQVTVSS,high polyreactivity
10,QVQLVESGGGLVQAGGSLRLSCAASGRNLLYYGMGWYRQAPGKERELVAVISRGGSTYYADSVKGRFTISRDNAKNTVYLQMNSLKPEDTAVYYCAKRIYYGGVATKSLMDYWGQGTQVTVSS,high polyreactivity
11,QVQLVESGGGLVQAGGSLRLSCAASGLISESYAMGWYRPAPGKERELVAAISSGGSTYYADSVKGRFTISRDNAKNTVYLQMNSLKPEDTAVYYCNASGYKYTYGHAYYYAVDYWGQGTQVTVSS,low polyreactivity
12,QVQLVDSGGGLVQAGGSLRLSCAASGRTFGVYAIGWYRQAPGKERELVAAITSGGSTNYADSVKGLLTISRDNANNTVYLQMNSLKPEDTAVYYCAARYKAYWQLYDYWGQGTQVTVSS,high polyreactivity
13,QVQLQESGGGLMQAGGNLRLSCAASGYISTHYYMHWYRQAPGKERELVARIDDGAITNYADSVKGRFTISRDNAKNTVYLLMNSLKPEDTAVYYCAVYSGDDYYHDFWGQGTKVTVSS,low polyreactivity
14,QVQLVESGGGLVQAGGSLRLSCAASGRTLGGYTMGWYRQAPGKERELVAAITTGGSTNYADSVKGRFTISRDNAKNTVYLQMKSLIPEDTAVYYCATDLVFDKRYWYDFWGEGTQVTVSS,low polyreactivity
15,QVQLGESGGGLVQAGGSLRLSCAASGRTFYVYAMGWYRQAPGKERELVASIRRSGGITYYADYVKGRFTISRDNAKNTVYLLMNSLKPEDSAVYYCNARRGPGRREYDYWGQGTQVTVSS,high polyreactivity
16,QVQLVESGGGLVQAGGSLRLSCAASGSTIDKYAMGWYRQAPGKERELVAAIRKSGGRTYYADSVKGRFTISRDNAKHTVYLQMYSLKQEDTAVYYCAAVLPNYYSVRYGYWGQGTQVSVSS,high polyreactivity
17,QVQLVESGGGLVQAGGSLRLSCAASGHTYRYYAMGWYRQAPGKERELVAAITGGGGSTYYADSVKGRFTISRDNAKNTVYLQMNSLKPEDTAVYYCATGGVSGIVGGDYWGQGTQVTVSS,low polyreactivity
18,QVHLVESVGGLVQAGGSLRLSCAASGRTFGGYAMGWYRQAHGKERELVAAIRRSGGSTYYADSVKGRFTISRDNAKNTVYLQMNSVKPEDTAVYYCAASGIYNVRMYYWGQGTLVTVSS,high polyreactivity
19,QVQLVESGGGLVQAGGSLRLSCAASGSTFLYNAIGWYRQAPGKERELVAAISSGGRTKYADSVKGRFTISRDTAKNTVYLQMNSLKPEDTAVYYCAAESYTGKYCWVWKWYDYWGQGTQVTVSS,low polyreactivity
20,QVQLVESGGGLVQAGGSLRLSCAASGSTFSSYAMGWYRQAPGKERELVAAINWSGTRTYYADSVKGRFTISRDNAKNTVYLQMNSLKPEDTAVYYCAAPGFGETADYDDWGQGTQVTVSS,low polyreactivity
21,QVQLVESGGGLVQAGGSLRLSCAASGNTFSNYAMGWYRQAPGKERELVAAISRSGGRTYYADSVKGRFTISRDNAKNSVYLKMNSLKPEDTAVYDCIATSNGESYYWGQGTQVTVSS,high polyreactivity
22,QVQLVESGGGLVKAGGSLRLSCAASGSIFLYYSMGWYRQAPGKERELVAAITGGGCTNYADSEKGRFTISRDHAKNNVYLLMNSLKPEDTSVYYWAADASGQFPYSYYNYDYDYWGQGTQVSVSS,low polyreactivity

row,Sequence,polyreactivity (PSR sort gate)
1,QVQLVESGGGLVQAGGSLRLSCAASGSIILYYAIGWYRQAPGIERELVAGIRRGGRTNYADSVKGRFTISRDNAKNTVYLQMNSLKPEDTAVYYCAKGGYWGQGSQVTVSS,high polyreactivity
2,QVQLVESGGGLVQAGGSLRLSCAASGRTFYSYAMGWYRQAPGTERELVAAITSSGGRTYYADSVKGRFTISRDNAKNTVYLQMNSLKPEDTAVYYCAAKWITRRGGDFDYWGQGTQVTVSS,high polyreactivity
3,QVQLVESGGGLVQAGGSLRLSCAASGSNFNYNDMGWSRQAPGKERELVAAIDSSGTSTYYADSVKGRFTISRDNAKNTVYLQMNSLKPEDTAVYYCNADSSLGFGYWGQGTQVTVSS,low polyreactivity
4,QVHLVESGGGLVQAGGSLRLSCAASGFNFNKYALGWYRQAPGKERELVAAITIGGSTYYADSVKGRFTISRDNAKNTVYFQMNSLKPEDTAVYYCAAVQGKVRGGYYWGQGTQVTVSS,high polyreactivity
5,QVQLVESGGGLVQAGGSLRLSCAASGSIFYRYTMGWYRQAPGKERELVAGITFGAGTYYADSVKGRFTISRDNAKNTVYLQMNSLKPEDTAVYYCNAKHLPRHRDYWGQGTQVTVSS,low polyreactivity
6,QVQLVESGGGLVQAGGSLRLSCAASGFTFSVNAMGRYRQAPGKERELVAAISSRGSITYYADSVKGRFTISRDNAKNTVYLQMNSLKPEDPAVYYCNAYKYKSPGDYWGQGTQVTVSS,high polyreactivity
7,QDQLVESGGGLVPAGGSLRLSCAASGGILPQYAMGWYRQAPGKERELVAAITRGGARTYYADSVKGRFTISRDNAKNTVYLQMTSLKPEDTAVYYCAARGPGYQLYDYWGQGTQVTVSS,high polyreactivity
8,QVQLVESGGGLVQAGGSLRLSCAASGGIFPYYAMGWYRQAPGKERELVADISSGGSTYYADSVKGRFTISRDNAKNTVYFQMNSLKPEDTAVYYCAADAGQYFTYSGDDNHDYWGQGTQVTVSS,low polyreactivity
9,QVQLVESGGGLVQAGGSLRLSCAASGYTFRYYAMGWYRQAPGKERELVAVISSGGSTKYADSVKGRFTISRDNAKNTVYLQMNSLKPEDTAVYYCAARYRSLYNYWGQGTQVTVSS,high polyreactivity
10,QVQLVESGGGLVQAGGSLRLSCAASGRIFAGYAMGWYRQAPGKERELVATISSGGSTYYADSVKGRFTISRDNAKNTVYLQMNSLKPEDTAVYYCAAEYGTRQYSSYYKLFNYWGQGTQVTVSS,low polyreactivity
11,QVQLVESGGGLVQAGGSLRLSCAASGFIFYRYAMGWYRQAPGKERELVAAIRGGGSTYYADSVKGRFTISRDNAKTTVYLQMNSLKPEDTAVYYCNAVYGVRPNRYHYDYWGQGTQVTVSS,low polyreactivity
12,QVHLEESGGGLVQAGRSLRLTCAASGRTFLWYAMGSYRQAPGKETDLVAAIRRSGGGTYYADSVKGRFTISRDNAKNSVYLQMNRLKPEDSGFFYCNSDYRGYQRGVISDGFYYWGLGTQVTVSS,low polyreactivity
13,QVQLVESGGGLVQAGGSLHLSCAASGRIFRVNAMGWYRQAPGKERELVAAISYRGGRTYYADSVKGRFTFSRDNAKNTVYLQMNSLKPEDTAVYYCAAKVWARVDGRQFRMEYWGQGTQVTVSS,high polyreactivity
14,QVQLVESGGGLVQAGGSLRLSCAPSGFIFTRYAMGWYRQAPGKERELVAAISWSGGSTYYADSVKGRFTISRDNAKNTVYLQMNSLKPEDTAVYYCAADGSDSYDYWGQGTQVTVSS,low polyreactivity
15,QVQLVESGGGLVQAGGSLRLSCAASGSTFIFYAMGWYRQAPGKERELVAAITSSGGSTYYADSVKGRFTISRDNAKNTVYLQMNSLKPEDTAVYYCNTLAYTYGSKFGYWGQGTQVTVSS,low polyreactivity
16,QVQLVESGGGLVQAGGSLRLSCAASGSTFYTYAMGWYRQAPGKEMELVADITRGGSTYYADSVKGRFTISRDNAKNTVYLQMNSLKPEDTAVYYCAADYTWLSFFEFDYWGQGTQVTVSS,high polyreactivity
17,QVQLVESGGGLVQAGGSLRLSCAASGSILGVYTMGWYRQAPGKERELVARIRLSGGSTYYADSVKGRFTISRDNAKNTVYLQMNSLIPEDTAVYYCAARYSRARFTDPYYYWGQGTQVTVSS,high polyreactivity
18,QVQLVESGGGLVQAGGSLRLSCAASGSICGWYVLGWYRQAPGKEMELVAAITWSAARTYYADSVKGRFTISRDNAKITVYLQMNSLKPEDTAVYYCAADHVSYQPSCRIFDYWGQGTQVTVSS,low polyreactivity
19,QVQLVESGGGLVQAGGSLRLSCAASGRIFRFYAMGWYRQAPGKETELVATINSGVGRTYYADSVKGRFTISRDNAKNTVYLQFNSLKPEDTAVYYCAAEKRSYPQSYYYWGQGTQVTVSS,high polyreactivity
20,QVQLVESGGGLVQAGGSLRLSCAASGSIFLGNAMGWYSPAPGKERELVAAISYSGGSTYYADSVKGRFTISRDNAKNTVYLQMNSLKPEDTDVYYCAADRSSQFDLDYWGQGTRVTVSS,low polyreactivity
21,QVQLVESGGGLVQAGGSLRLSCAASGNTFDGYDMGWYRQAPGNKRELVAAITNTGASTYYADSVKGRCTISRDNAKNTVYLQMNSLKPEDTAVYYCNAQDSYPEDRHGMSYWGQGTQVTVSS,low polyreactivity
